These results are taken from the supplement of paper PMC9428881.

± gives the standard error.

The data set in a line: background-corrected fluorescence of 3'-dye-labeled ssDNA relative to brightest sequence (3'-GCGCG) (fraction); higher = brighter dye fluorescence (less quenching). How it is done: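 Single-stranded DNA is synthesized in situ on glass microarrays by 5'->3' photolithographic synthesis, with a Cy3 or Cy5 phosphoramidite coupled at the 3' end next to all 1024 permuted pentamers P1-P5. The construct is 5'-T5-(ACGT minus P5..P1 trinucleotides)-T15-P5P4P3P2P1-dye-3'; the dye is a 3' terminal modification, not part of the sequence. Arrays were scanned at 532 nm (Cy3) or 635 nm (Cy5), background from unlabeled oligos was subtracted, and values are averaged over 10 replicate features per array and at least 3 independent syntheses.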

As for “TTTTTTCATGCTGATGATGCTTTTTTTTTTTTTTTGACCA [ACCAG]”, the background-corrected fluorescence is, setting by setting: (dye: Cy3 (3' terminal)) 0.499 ± 0.022; (dye: Cy5 (3' terminal)) 0.394 ± 0.024.
The corresponding values for “TTTTTGCATGCTGCTGATGCTTTTTTTTTTTTTTTTAACA [ACAAT]” are 0.557 ± 0.022 and 0.405 ± 0.033.
In turn, “TTTTTTGCTGATGCTGCTGATTTTTTTTTTTTTTTACAAC [CAACA]” returned a background-corrected fluorescence (dye: Cy3 (3' terminal)) of 0.448 ± 0.0078 and a background-corrected fluorescence (dye: Cy5 (3' terminal)) of 0.302 ± 0.032.
The corresponding values for “TTTTTTCATCAGCATGATGATTTTTTTTTTTTTTTGGTCC [CCTGG]” are 0.404 ± 0.0089 and 0.317 ± 0.03.
In the case of “TTTTTTCATCAGCATCATCATTTTTTTTTTTTTTTGGTGG”, the background-corrected fluorescence came to 0.629 ± 0.028 (dye: Cy3 (3' terminal)) and 0.483 ± 0.055 (dye: Cy5 (3' terminal)).
For “TTTTTTGAGCAGCAGCATGCTTTTTTTTTTTTTTTCTTTA [ATTTC]”, in that order: 0.48 ± 0.016 and 0.4 ± 0.037.
The corresponding values for “TTTTTGCAGCATGATGCTGATTTTTTTTTTTTTTTTTCAC [CACTT]” are 0.385 ± 0.01 and 0.289 ± 0.016.
Regarding “TTTTTTGATGATGCTGATGATTTTTTTTTTTTTTTCCACC”, the background-corrected fluorescence runs as follows: (dye: Cy3 (3' terminal)) 0.378 ± 0.0043; (dye: Cy5 (3' terminal)) 0.275 ± 0.026.
Consider “TTTTTGCATCATGATGCGCATTTTTTTTTTTTTTTTGCAT [TACGT]”, for which the background-corrected fluorescence is, setting by setting: (dye: Cy3 (3' terminal)) 0.529 ± 0.02; (dye: Cy5 (3' terminal)) 0.394 ± 0.02.
For “TTTTTTCATGCTGATGCGCATTTTTTTTTTTTTTTGACAT [TACAG]”, the background-corrected fluorescence is, setting by setting: (dye: Cy3 (3' terminal)) 0.536 ± 0.019; (dye: Cy5 (3' terminal)) 0.388 ± 0.025.
For “TTTTTTGATGATGCTGCTGATTTTTTTTTTTTTTTCCAAC [CAACC]”, in that order: 0.403 ± 0.021 and 0.291 ± 0.02.
The corresponding values for “TTTTTTGCTGATCATGCTGCTTTTTTTTTTTTTTTACGAA [AAGCA]” are 0.575 ± 0.032 and 0.452 ± 0.026.
For “TTTTTGCATGAGCAGCAGCATTTTTTTTTTTTTTTTCTTT”, in that order: 0.504 ± 0.016 and 0.353 ± 0.032.
As for “TTTTTTGCGCATGAGCAGCATTTTTTTTTTTTTTTATCTT [TTCTA]”, the background-corrected fluorescence (dye: Cy3 (3' terminal)) was 0.458 ± 0.0056 and the background-corrected fluorescence (dye: Cy5 (3' terminal)) came out at 0.35 ± 0.024.
For “TTTTTGCATGCTGATGCTGATTTTTTTTTTTTTTTTACAC [CACAT]”, in that order: 0.425 ± 0.017 and 0.312 ± 0.014.
For “TTTTTTGCTCAGCAGCATGCTTTTTTTTTTTTTTTAGTTA [ATTGA]”, in that order: 0.57 ± 0.0086 and 0.409 ± 0.016.
The corresponding values for “TTTTTTGATCATCATCAGCATTTTTTTTTTTTTTTCGGGT [TGGGC]” are 0.7 ± 0.013 and 0.616 ± 0.068.
With “TTTTTTGCTCAGCATCAGCATTTTTTTTTTTTTTTAGTGT [TGTGA]”, the background-corrected fluorescence runs as follows: (dye: Cy3 (3' terminal)) 0.572 ± 0.021; (dye: Cy5 (3' terminal)) 0.474 ± 0.033.
For “TTTTTGCAGCAGCATGATGATTTTTTTTTTTTTTTTTTCC [CCTTT]”, the background-corrected fluorescence was found to be 0.363 ± 0.017 (dye: Cy3 (3' terminal)) and 0.253 ± 0.015 (dye: Cy5 (3' terminal)).
Turning to “TTTTTTGCGCATCATGAGCATTTTTTTTTTTTTTTATGCT [TCGTA]”, the background-corrected fluorescence came to 0.518 ± 0.029 (dye: Cy3 (3' terminal)) and 0.393 ± 0.02 (dye: Cy5 (3' terminal)).
The corresponding values for “TTTTTGCATGATCAGCAGCATTTTTTTTTTTTTTTTCGTT [TTGCT]” are 0.55 ± 0.029 and 0.417 ± 0.026.
The corresponding values for “TTTTTTGCTGCGCAGCATCATTTTTTTTTTTTTTTAATTG [GTTAA]” are 0.561 ± 0.03 and 0.381 ± 0.025.
Take “TTTTTTCATGATGAGCAGCATTTTTTTTTTTTTTTGCCTT [TTCCG]”: the background-corrected fluorescence by setting is: (dye: Cy3 (3' terminal)) 0.489 ± 0.031; (dye: Cy5 (3' terminal)) 0.367 ± 0.035.
For “TTTTTTGAGCATGATCATGCTTTTTTTTTTTTTTTCTCGA [AGCTC]”, in that order: 0.599 ± 0.011 and 0.49 ± 0.03.
With “TTTTTGCAGCATGATGATGCTTTTTTTTTTTTTTTTTCCA [ACCTT]”, the background-corrected fluorescence reads like this: (dye: Cy3 (3' terminal)) 0.453 ± 0.026; (dye: Cy5 (3' terminal)) 0.35 ± 0.028.
With “TTTTTGCAGCATGATGAGCATTTTTTTTTTTTTTTTTCCT [TCCTT]”, the background-corrected fluorescence came to 0.444 ± 0.021 (dye: Cy3 (3' terminal)) and 0.325 ± 0.036 (dye: Cy5 (3' terminal)).
The corresponding values for “TTTTTTGCTCATCATGATCATTTTTTTTTTTTTTTAGGCG [GCGGA]” are 0.633 ± 0.026 and 0.521 ± 0.049.
For “TTTTTGCAGCATCATGAGCATTTTTTTTTTTTTTTTTGCT [TCGTT]”, the background-corrected fluorescence is, setting by setting: (dye: Cy3 (3' terminal)) 0.482 ± 0.014; (dye: Cy5 (3' terminal)) 0.361 ± 0.019.
On to “TTTTTTGATGCTGATGATGCTTTTTTTTTTTTTTTCACCA [ACCAC]”, for which the background-corrected fluorescence reads like this: (dye: Cy3 (3' terminal)) 0.493 ± 0.019; (dye: Cy5 (3' terminal)) 0.375 ± 0.043.
In the case of “TTTTTGCATGCTGCTCAGCATTTTTTTTTTTTTTTTAAGT [TGAAT]”, the background-corrected fluorescence by setting is: (dye: Cy3 (3' terminal)) 0.663 ± 0.018; (dye: Cy5 (3' terminal)) 0.493 ± 0.031.
For “TTTTTGCAGCATGATCATCATTTTTTTTTTTTTTTTTCGG [GGCTT]”, in that order: 0.59 ± 0.022 and 0.485 ± 0.024.
The corresponding values for “TTTTTGCAGCATGCTGAGCATTTTTTTTTTTTTTTTTACT [TCATT]” are 0.49 ± 0.013 and 0.361 ± 0.047.
For “TTTTTGCATCATCATGAGCATTTTTTTTTTTTTTTTGGCT [TCGGT]”, in that order: 0.549 ± 0.017 and 0.442 ± 0.053.
In the case of “TTTTTGCAGCATGCTGATGCTTTTTTTTTTTTTTTTTACA [ACATT]”, the background-corrected fluorescence reads like this: (dye: Cy3 (3' terminal)) 0.502 ± 0.01; (dye: Cy5 (3' terminal)) 0.397 ± 0.025.
For “TTTTTTGCTGCTCATGCTCATTTTTTTTTTTTTTTAAGAG [GAGAA]”, in that order: 0.607 ± 0.036 and 0.489 ± 0.086.
Take “TTTTTTCATCATGCTGCGCATTTTTTTTTTTTTTTGGAAT [TAAGG]”: the background-corrected fluorescence runs as follows: (dye: Cy3 (3' terminal)) 0.594 ± 0.033; (dye: Cy5 (3' terminal)) 0.453 ± 0.043.
For “TTTTTTGAGCATGCTGAGCATTTTTTTTTTTTTTTCTACT [TCATC]”, the background-corrected fluorescence reads like this: (dye: Cy3 (3' terminal)) 0.454 ± 0.0046; (dye: Cy5 (3' terminal)) 0.33 ± 0.024.
Turning to “TTTTTGCATGCGCATGATGCTTTTTTTTTTTTTTTTATCA [ACTAT]”, the background-corrected fluorescence came to 0.478 ± 0.033 (dye: Cy3 (3' terminal)) and 0.407 ± 0.053 (dye: Cy5 (3' terminal)).
As for “TTTTTTCAGCATGCTGCGCATTTTTTTTTTTTTTTGTAAT [TAATG]”, the background-corrected fluorescence turned out to be 0.531 ± 0.019 (dye: Cy3 (3' terminal)) and 0.435 ± 0.043 (dye: Cy5 (3' terminal)).
Turning to “TTTTTTGATGAGCATCATGCTTTTTTTTTTTTTTTCCTGA [AGTCC]”, the background-corrected fluorescence runs as follows: (dye: Cy3 (3' terminal)) 0.592 ± 0.034; (dye: Cy5 (3' terminal)) 0.499 ± 0.086.
As to “TTTTTGCATCAGCATGCTGATTTTTTTTTTTTTTTTGTAC [CATGT]”, the background-corrected fluorescence reads like this: (dye: Cy3 (3' terminal)) 0.471 ± 0.041; (dye: Cy5 (3' terminal)) 0.344 ± 0.022.
The corresponding values for “TTTTTTGCTGATCAGCATCATTTTTTTTTTTTTTTACGTG [GTGCA]” are 0.589 ± 0.022 and 0.472 ± 0.028.
For “TTTTTTGATGATCATCATGATTTTTTTTTTTTTTTCCGGC [CGGCC]”, in that order: 0.623 ± 0.025 and 0.511 ± 0.041.
As for “TTTTTTGATCATGAGCATGCTTTTTTTTTTTTTTTCGCTA [ATCGC]”, the background-corrected fluorescence reads like this: (dye: Cy3 (3' terminal)) 0.549 ± 0.026; (dye: Cy5 (3' terminal)) 0.399 ± 0.027.
Turning to “TTTTTGCATGATGCTCATGATTTTTTTTTTTTTTTTCAGC [CGACT]”, the background-corrected fluorescence is, setting by setting: (dye: Cy3 (3' terminal)) 0.492 ± 0.012; (dye: Cy5 (3' terminal)) 0.393 ± 0.047.
For “TTTTTTGCTGATGATGCTCATTTTTTTTTTTTTTTACCAG [GACCA]”, in that order: 0.516 ± 0.024 and 0.378 ± 0.028.
As to “TTTTTTGAGCAGCATGCTGATTTTTTTTTTTTTTTCTTAC [CATTC]”, the background-corrected fluorescence runs as follows: (dye: Cy3 (3' terminal)) 0.404 ± 0.026; (dye: Cy5 (3' terminal)) 0.3 ± 0.017.
The corresponding values for “TTTTTTCATGCTCATGCGCATTTTTTTTTTTTTTTGAGAT [TAGAG]” are 0.578 ± 0.051 and 0.439 ± 0.023.
For the sequence “TTTTTTGATGCTGCTCATCATTTTTTTTTTTTTTTCAAGG [GGAAC]”, the background-corrected fluorescence runs as follows: (dye: Cy3 (3' terminal)) 0.579 ± 0.028; (dye: Cy5 (3' terminal)) 0.489 ± 0.029.
The corresponding values for “TTTTTGCAGCAGCATCATGATTTTTTTTTTTTTTTTTTGC [CGTTT]” are 0.495 ± 0.024 and 0.341 ± 0.032.
“TTTTTTCATGCGCATGCTGCTTTTTTTTTTTTTTTGATAA [AATAG]”: the background-corrected fluorescence runs as follows: (dye: Cy3 (3' terminal)) 0.587 ± 0.042; (dye: Cy5 (3' terminal)) 0.452 ± 0.031.
Consider “TTTTTTGATGATCATGAGCATTTTTTTTTTTTTTTCCGCT [TCGCC]”, for which the background-corrected fluorescence by setting is: (dye: Cy3 (3' terminal)) 0.579 ± 0.035; (dye: Cy5 (3' terminal)) 0.428 ± 0.034.
As for “TTTTTTGCTGAGCAGCAGCATTTTTTTTTTTTTTTACTTT [TTTCA]”, the background-corrected fluorescence came to 0.519 ± 0.022 (dye: Cy3 (3' terminal)) and 0.37 ± 0.022 (dye: Cy5 (3' terminal)).
For “TTTTTTGATGCTGATCAGCATTTTTTTTTTTTTTTCACGT [TGCAC]”, in that order: 0.588 ± 0.034 and 0.473 ± 0.03.
The corresponding values for “TTTTTTCATGATGCTCAGCATTTTTTTTTTTTTTTGCAGT [TGACG]” are 0.607 ± 0.021 and 0.51 ± 0.055.
